Assay results: paper PMC9057628

Key:
[1] = target: recombinant full-length human TTRV122I with N-terminal AviTag (human) (UniProt P02766); experiment: SEC; time series: TTR in 1M urea pH 7.6 at room temperature on a rotating platform for 1 hour to 7 days; oligomers between 200 and 600 kDa; also with 100 uM H2O2 or 5 mM DTT
[2] = target: recombinant full-length human TTRWT with N-terminal AviTag (human) (UniProt P02766); experiment: as above

recombinant full-length human TTRV122I with N-terminal AviTag (from UniProt P02766 21-147) (natural protein)
stoichiometry N (protein subunits) [1]: 15

recombinant full-length human TTRWT with N-terminal AviTag (from UniProt P02766 21-147) (natural protein)
stoichiometry N (protein subunits) [2]: 10
